This is an account of results in PMC11262690.

This assay concerns the target Nematocida displodere mechanosensitive ion channel of small conductance 2, MscS2Δ2–29 (His14-SUMO tag cleaved) (Nematocida displodere). The assay can be described thus: cryo-EM structure; single-particle, 0.33 mg/mL in DDM, 200 kV Glacios; consensus refinement without symmetry 8.3 Å, focused refinement of two channels 7.7 Å.

By stoichiometry N is commonly meant the number of molecules, sites or subunits per partner or assembly. The substance “Nematocida displodere mechanosensitive ion channel of small conductance 2, MscS2Δ2–29 (His14-SUMO tag cleaved) (domain or fragment)” gave a heptameric channels in the superstructure of 6 and a stoichiometry N of 7.
